The source of these data is article PMC11910882.

This data set deals with SlNSP2-GST (Solanum lycopersicum (tomato), UniProt A0A3Q7ITG8 1-487). The data set can be described thus: EMSA. A general note: Mobility shift assays separate free from complexed probe on a gel.

B1: pSlABCG44-WT (dsDNA)
DNA 1: GAGTGAATTTGTTTGGTTCAATTTTGTCC
DNA 2: GGACAAAATTGAACCAAACAAATTCACTC
As to B1, the binding result is on record as “no binding”.
